Measured values from IntAct's records for PubMed 36931259.

B1: 14-3-3 protein sigma (Homo sapiens), P31947 (parent)
chain: MERASLIQKAKLAEQAERYEDMAAFMKGAVEKGEELSCEERNLLSVAYKNVVGGQRAAWRVLSSIEQKSNEEGSEEKGPEVREYREKVETELQGVCDTVLGLLDSHLIKEAGDAESRVFYLKMKGDYYRYLAEVATGDDKKRIIDSARSAYQEAMDISKKEMPPTNPIRLGLALNFSVFHYEIANSPEEAISLAKTTFDEAMADLHTLSEDSYKDSTLIMQLLRDNLTLWTADNAGEEGGEAPQEPQS
partner: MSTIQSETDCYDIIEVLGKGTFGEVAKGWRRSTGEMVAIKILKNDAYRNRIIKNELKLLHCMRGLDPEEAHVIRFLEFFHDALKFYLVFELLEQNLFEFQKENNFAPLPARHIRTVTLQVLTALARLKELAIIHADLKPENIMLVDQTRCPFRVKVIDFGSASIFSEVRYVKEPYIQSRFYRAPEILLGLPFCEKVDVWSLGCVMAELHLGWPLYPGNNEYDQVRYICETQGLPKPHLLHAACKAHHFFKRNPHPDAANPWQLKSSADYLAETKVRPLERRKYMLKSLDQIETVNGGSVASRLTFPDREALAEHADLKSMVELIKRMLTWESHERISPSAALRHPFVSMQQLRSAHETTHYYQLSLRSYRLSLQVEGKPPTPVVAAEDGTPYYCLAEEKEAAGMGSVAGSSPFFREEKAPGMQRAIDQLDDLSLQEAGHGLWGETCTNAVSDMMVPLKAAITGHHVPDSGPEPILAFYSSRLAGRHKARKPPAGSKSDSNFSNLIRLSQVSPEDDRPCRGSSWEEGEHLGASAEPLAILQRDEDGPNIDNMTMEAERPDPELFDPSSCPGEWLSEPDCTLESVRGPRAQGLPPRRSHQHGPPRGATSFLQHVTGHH
B2: 14-3-3 protein sigma (Homo sapiens), P31947 (parent)
chain: B1 chain
partner: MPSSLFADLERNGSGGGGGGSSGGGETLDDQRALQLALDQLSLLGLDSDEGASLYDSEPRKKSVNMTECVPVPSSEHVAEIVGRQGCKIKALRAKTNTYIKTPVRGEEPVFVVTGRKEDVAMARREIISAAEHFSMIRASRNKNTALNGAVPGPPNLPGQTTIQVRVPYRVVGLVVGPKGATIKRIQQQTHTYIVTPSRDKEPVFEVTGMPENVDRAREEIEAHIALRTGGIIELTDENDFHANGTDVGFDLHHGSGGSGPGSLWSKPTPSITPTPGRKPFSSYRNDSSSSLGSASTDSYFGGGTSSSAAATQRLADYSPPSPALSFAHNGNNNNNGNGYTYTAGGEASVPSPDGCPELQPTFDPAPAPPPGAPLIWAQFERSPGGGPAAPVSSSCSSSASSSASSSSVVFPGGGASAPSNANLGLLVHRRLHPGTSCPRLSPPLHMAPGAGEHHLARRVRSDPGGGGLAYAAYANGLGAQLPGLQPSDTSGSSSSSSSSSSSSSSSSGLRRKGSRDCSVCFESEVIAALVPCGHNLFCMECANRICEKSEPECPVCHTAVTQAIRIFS
B3: 14-3-3 protein sigma (Homo sapiens), P31947 (parent)
chain: B1 chain
partner: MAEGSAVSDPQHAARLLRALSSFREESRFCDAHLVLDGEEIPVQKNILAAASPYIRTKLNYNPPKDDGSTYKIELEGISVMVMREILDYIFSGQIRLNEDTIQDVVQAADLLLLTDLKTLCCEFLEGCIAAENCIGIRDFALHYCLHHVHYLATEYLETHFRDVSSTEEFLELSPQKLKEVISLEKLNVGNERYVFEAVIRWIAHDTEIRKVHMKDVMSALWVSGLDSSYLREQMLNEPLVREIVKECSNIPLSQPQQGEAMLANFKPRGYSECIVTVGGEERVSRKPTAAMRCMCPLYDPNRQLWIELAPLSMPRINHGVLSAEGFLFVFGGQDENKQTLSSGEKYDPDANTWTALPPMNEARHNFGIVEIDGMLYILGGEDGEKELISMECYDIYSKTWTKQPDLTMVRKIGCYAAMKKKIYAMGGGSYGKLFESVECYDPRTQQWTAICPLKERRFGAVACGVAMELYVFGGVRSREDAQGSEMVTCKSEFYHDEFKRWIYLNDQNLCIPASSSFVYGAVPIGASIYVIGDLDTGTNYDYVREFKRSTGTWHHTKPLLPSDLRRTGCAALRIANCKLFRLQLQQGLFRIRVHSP
B4: 14-3-3 protein sigma (Homo sapiens), P31947 (parent)
chain: B1 chain
partner: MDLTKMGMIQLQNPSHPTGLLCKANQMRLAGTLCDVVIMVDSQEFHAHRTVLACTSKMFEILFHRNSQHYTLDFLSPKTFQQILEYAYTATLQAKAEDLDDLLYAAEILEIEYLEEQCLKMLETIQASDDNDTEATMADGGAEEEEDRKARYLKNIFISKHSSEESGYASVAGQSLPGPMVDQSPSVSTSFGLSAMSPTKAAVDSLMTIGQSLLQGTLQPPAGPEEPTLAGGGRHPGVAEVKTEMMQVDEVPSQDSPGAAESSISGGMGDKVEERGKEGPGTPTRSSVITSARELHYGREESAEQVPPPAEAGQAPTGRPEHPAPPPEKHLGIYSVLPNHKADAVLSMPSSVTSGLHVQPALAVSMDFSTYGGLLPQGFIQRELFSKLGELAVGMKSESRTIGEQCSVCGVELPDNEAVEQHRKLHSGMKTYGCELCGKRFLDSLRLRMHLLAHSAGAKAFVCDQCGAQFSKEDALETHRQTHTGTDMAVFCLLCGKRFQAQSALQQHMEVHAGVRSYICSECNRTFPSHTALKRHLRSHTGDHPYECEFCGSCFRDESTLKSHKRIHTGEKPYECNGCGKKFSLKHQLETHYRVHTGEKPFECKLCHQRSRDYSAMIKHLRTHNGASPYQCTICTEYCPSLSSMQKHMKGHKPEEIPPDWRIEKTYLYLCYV
B5: 14-3-3 protein sigma (Homo sapiens), P31947 (parent)
chain: B1 chain
partner: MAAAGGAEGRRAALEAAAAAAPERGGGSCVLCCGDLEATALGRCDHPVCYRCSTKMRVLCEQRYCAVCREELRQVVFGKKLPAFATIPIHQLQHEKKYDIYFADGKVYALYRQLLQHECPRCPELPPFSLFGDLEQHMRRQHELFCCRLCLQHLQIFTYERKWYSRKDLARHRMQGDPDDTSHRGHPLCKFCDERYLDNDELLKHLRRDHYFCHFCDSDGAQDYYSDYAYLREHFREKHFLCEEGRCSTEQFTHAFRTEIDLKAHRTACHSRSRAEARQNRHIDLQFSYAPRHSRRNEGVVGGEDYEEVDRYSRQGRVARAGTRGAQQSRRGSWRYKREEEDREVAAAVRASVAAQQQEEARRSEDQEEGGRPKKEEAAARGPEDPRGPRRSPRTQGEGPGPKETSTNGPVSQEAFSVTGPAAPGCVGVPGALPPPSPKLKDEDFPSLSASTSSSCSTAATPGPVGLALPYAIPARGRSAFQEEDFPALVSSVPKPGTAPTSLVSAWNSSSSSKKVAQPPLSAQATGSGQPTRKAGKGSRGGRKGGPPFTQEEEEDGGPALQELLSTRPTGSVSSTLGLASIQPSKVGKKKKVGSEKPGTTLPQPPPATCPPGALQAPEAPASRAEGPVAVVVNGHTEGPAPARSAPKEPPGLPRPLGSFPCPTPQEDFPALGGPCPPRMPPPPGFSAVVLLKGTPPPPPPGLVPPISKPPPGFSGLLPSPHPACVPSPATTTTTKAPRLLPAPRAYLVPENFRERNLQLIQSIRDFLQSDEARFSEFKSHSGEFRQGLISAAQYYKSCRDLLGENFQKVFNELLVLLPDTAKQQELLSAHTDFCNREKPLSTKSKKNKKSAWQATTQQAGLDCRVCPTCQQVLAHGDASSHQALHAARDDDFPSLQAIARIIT

Variants of: B1
Conditions: with hipk4_human HIPK4, Q8NE63

Variant | effect of a mutation on the interaction
K49E;R56E;V178D | decreasing interaction strength

Variants of: B2
Conditions: with mex3b_human MEX3B

Variant | effect of a mutation on the interaction
K49E;R56E;V178D | decreasing interaction strength

Variants of: B3
Conditions: with gan_human GAN

Variant | effect of a mutation on the interaction
K49E;R56E;V178D | decreasing interaction strength

Variants of: B4
Conditions: with zbt16_human ZBTB16, Q05516

Variant | effect of a mutation on the interaction
K49E;R56E;V178D | decreasing interaction strength

Variants of: B5
Conditions: with zn598_human ZNF598, Q86UK7

Variant | effect of a mutation on the interaction
K49E;R56E;V178D | decreasing interaction strength
